Data as given in the Human Domainome abundance scans (Beltran et al. 2025).
± gives the uncertainty stated by the source.

B1: Pre-mRNA-processing factor 40 homolog B, residues 274 to 332; numbered along this chain, Q6NWY9 (parent)
chain: SNREKAKQAFKELLRDKAVPSNASWEQAMKMVVTDPRYSALPKLSEKKQAFNAYKAQRE

Variants of: B1
Assay: abundance fitness (aPCA) (normalised: wild type 0, dead -1); higher = more abundant; growth selection in yeast, the domain comes from the species named
Conditions: Homo sapiens

Row | Variant | abundance fitness
1 | P36T | -0.293 ± 0.1
2 | P36E | -0.103 ± 0.086
3 | P36Q | -0.289 ± 0.13
4 | P36C | -0.381 ± 0.11
5 | P36W | -0.669 ± 0.092
6 | P36F | -0.307 ± 0.13
7 | P36G | -0.391 ± 0.059
8 | P36R | -0.24 ± 0.064
9 | P36L | -0.63 ± 0.07
10 | P36D | -0.049 ± 0.1
11 | P36S | -0.366 ± 0.075
12 | P36Y | -0.806 ± 0.13
13 | P36H | -0.445 ± 0.21
14 | P36V | -0.353 ± 0.074
15 | P36M | -0.607 ± 0.1
16 | P36A | -0.19 ± 0.076
17 | P36N | -0.418 ± 0.17
18 | S39M | -0.053 ± 0.19
19 | S39G | -0.071 ± 0.068
20 | S39L | -0.342 ± 0.084
21 | S39E | 0.102 ± 0.11
22 | S39H | 0.098 ± 0.11
23 | S39Y | -0.247 ± 0.12
24 | S39D | -0.068 ± 0.11

Row | Variant | abundance fitness
25 | S39N | 0.333 ± 0.17
26 | S39W | -0.278 ± 0.1
27 | S39A | -0.02 ± 0.068
28 | S39Q | -0.191 ± 0.16
29 | S39R | 0.032 ± 0.061
30 | S39T | -0.099 ± 0.095
31 | S39C | -0.141 ± 0.094
32 | S39K | -0.228 ± 0.14
33 | S39P | -0.527 ± 0.14
34 | T34Y | -0.23 ± 0.11
35 | T34L | -0.358 ± 0.066
36 | T34F | -0.382 ± 0.15
37 | T34N | 0.232 ± 0.12
38 | T34H | 0.043 ± 0.12
39 | T34Q | -0.015 ± 0.1
40 | T34G | 0.108 ± 0.059
41 | T34R | -0.257 ± 0.06
42 | T34P | -0.554 ± 0.11
43 | T34W | -0.544 ± 0.083
44 | T34A | 0.028 ± 0.061
45 | T34I | -0.611 ± 0.11
46 | T34M | -0.071 ± 0.089
47 | T34E | -0.039 ± 0.09
48 | T34S | 0.003 ± 0.068

Row | Variant | abundance fitness
49 | T34V | -0.419 ± 0.073
50 | R37H | -0.776 ± 0.19
51 | R37Q | -0.49 ± 0.11
52 | R37A | -0.223 ± 0.069
53 | R37L | -0.6 ± 0.081
54 | R37W | -0.836 ± 0.085
55 | R37T | -0.658 ± 0.12
56 | R37M | -0.705 ± 0.094
57 | R37F | -0.905 ± 0.21
58 | R37C | -0.668 ± 0.12
59 | R37D | -0.74 ± 0.16
60 | R37G | -0.577 ± 0.051
61 | R37Y | -1.25 ± 0.33
62 | R37I | -0.228 ± 0.14
63 | R37E | -0.479 ± 0.082
64 | K30S | -0.156 ± 0.087
65 | K30H | -0.384 ± 0.19
66 | K30W | -0.999 ± 0.15
67 | K30D | -0.411 ± 0.12
68 | K30G | -0.214 ± 0.067
69 | K30L | -0.42 ± 0.088
70 | K30F | -0.76 ± 0.17
71 | K30T | -0.143 ± 0.084
72 | K30P | -0.146 ± 0.11

Row | Variant | abundance fitness
73 | K30Q | -0.072 ± 0.2
74 | K30V | -0.429 ± 0.074
75 | K30C | -0.423 ± 0.16
76 | K30E | 0.067 ± 0.12
77 | K30M | -0.247 ± 0.11
78 | K30Y | -1.08 ± 0.23
79 | K30R | -0.03 ± 0.062
80 | K30I | -0.701 ± 0.19
81 | K30A | -0.061 ± 0.078
82 | A28S | -0.413 ± 0.05
83 | A28W | -0.71 ± 0.068
84 | A28M | -0.576 ± 0.062
85 | A28I | -0.595 ± 0.071
86 | A28D | -0.473 ± 0.072
87 | A28N | -0.445 ± 0.077
88 | A28V | -0.277 ± 0.056
89 | A28R | -0.607 ± 0.05
90 | A28K | -0.524 ± 0.063
91 | A28H | -0.583 ± 0.067
92 | A28T | -0.299 ± 0.054
93 | A28F | -0.563 ± 0.068
94 | A28G | -0.48 ± 0.055
95 | A28Q | -0.313 ± 0.065
96 | A28L | -0.684 ± 0.048

Row | Variant | abundance fitness
97 | A28E | -0.431 ± 0.074
98 | M29V | -0.114 ± 0.063
99 | M29Y | -0.014 ± 0.14
100 | M29E | -0.102 ± 0.1
101 | M29R | -0.078 ± 0.059
102 | M29P | -0.103 ± 0.1
103 | M29S | -0.136 ± 0.086
104 | M29Q | 0.047 ± 0.11
105 | M29D | -0.097 ± 0.1
106 | M29A | -0.125 ± 0.075
107 | M29G | -0.237 ± 0.058
108 | M29L | -0.216 ± 0.093
109 | M29F | -0.295 ± 0.17
110 | M29C | -0.203 ± 0.1
111 | M29K | 0.166 ± 0.094
112 | M29T | -0.282 ± 0.088
113 | P20T | -0.421 ± 0.083
114 | P20K | -0.654 ± 0.12
115 | P20Y | -0.641 ± 0.14
116 | P20R | -0.592 ± 0.053
117 | P20F | -1.59 ± 0.38
118 | P20S | -0.506 ± 0.066
119 | P20H | -0.789 ± 0.16
120 | P20M | -0.549 ± 0.083

Row | Variant | abundance fitness
121 | P20V | -0.578 ± 0.062
122 | P20G | -0.391 ± 0.05
123 | P20I | -0.753 ± 0.14
124 | P20L | -0.641 ± 0.072
125 | P20N | -0.587 ± 0.13
126 | A23P | -0.533 ± 0.13
127 | A23H | -0.591 ± 0.18
128 | A23N | -0.335 ± 0.12
129 | A23Y | -0.254 ± 0.12
130 | A23C | -0.206 ± 0.083
131 | A23R | -0.506 ± 0.068
132 | A23D | -0.522 ± 0.091
133 | A23I | -0.122 ± 0.13
134 | A23M | -0.142 ± 0.096
135 | A23Q | -0.528 ± 0.093
136 | A23S | -0.313 ± 0.072
137 | A23F | -0.348 ± 0.14
138 | A23K | -0.459 ± 0.1
139 | A23V | -0.222 ± 0.065
140 | A23T | -0.467 ± 0.1
141 | A23G | -0.464 ± 0.054
142 | Y38F | -0.02 ± 0.12
143 | Y38P | -0.423 ± 0.081
144 | Y38R | -0.476 ± 0.054

Row | Variant | abundance fitness
145 | Y38C | -0.368 ± 0.11
146 | Y38K | -0.217 ± 0.1
147 | Y38G | -0.436 ± 0.059
148 | Y38E | -0.399 ± 0.08
149 | Y38V | -0.38 ± 0.062
150 | Y38D | -0.346 ± 0.11
151 | Y38S | -0.293 ± 0.059
152 | Y38N | -0.466 ± 0.13
153 | Y38H | -0.392 ± 0.13
154 | Y38I | -0.548 ± 0.18
155 | Y38W | -0.085 ± 0.07
156 | Y38M | -0.613 ± 0.096
157 | Y38Q | -0.284 ± 0.1
158 | Y38A | -0.317 ± 0.067
159 | Y38T | -0.136 ± 0.077
160 | Y38L | -0.546 ± 0.073
161 | E26I | -0.547 ± 0.15
162 | E26R | -0.719 ± 0.093
163 | E26P | -0.149 ± 0.099
164 | E26G | -0.274 ± 0.067
165 | E26A | -0.31 ± 0.091
166 | E26L | -0.362 ± 0.088
167 | E26M | -0.325 ± 0.19
